Measured values reported in patent US20240052042A1 (Novartis, published 2024).
Residue numbers refer to the chain shown, from its start. Where two headings read alike, the source gives them in different places. Blank lines part the entries; values can stand above or below the binder they belong to.

Tests used:
[1] = target: T1, human Natriuretic Peptide Receptor 1 (hNPR1) (human, UniProt P16066 33-473, limits assumed); assay: SET, FabCys
T1 construct: pannings used NPR1-hFc; also called NPR1-hFc
T1 sequence: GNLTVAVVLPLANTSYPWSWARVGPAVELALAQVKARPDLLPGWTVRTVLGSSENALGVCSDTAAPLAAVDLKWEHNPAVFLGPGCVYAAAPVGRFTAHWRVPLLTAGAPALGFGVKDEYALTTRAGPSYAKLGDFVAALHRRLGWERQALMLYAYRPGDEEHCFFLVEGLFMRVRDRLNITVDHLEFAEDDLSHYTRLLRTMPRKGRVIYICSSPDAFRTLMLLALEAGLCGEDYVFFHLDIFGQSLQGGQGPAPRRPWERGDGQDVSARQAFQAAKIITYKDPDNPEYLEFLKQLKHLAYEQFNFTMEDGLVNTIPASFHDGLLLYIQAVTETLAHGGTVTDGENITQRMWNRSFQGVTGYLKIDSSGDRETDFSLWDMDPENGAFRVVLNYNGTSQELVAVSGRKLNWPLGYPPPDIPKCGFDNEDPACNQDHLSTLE

hNPR1-ANP complex [2] = target: T2, hNPR1-ANP complex (human, UniProt P01160 124-151, limits assumed); assay: SET, FabCys
T2 construct: hNPR1 antigen in the presence of ANP; also called hNPR1 + 100 nM ANP
T2 sequence: T1 sequence
T2 sequence (peptide): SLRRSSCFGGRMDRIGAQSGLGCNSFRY

[3] = target: T3, human NPR1 on CHO-K1 cells (human, UniProt P16066 33-1061); assay: cell-based or functional assay
T3 sequence: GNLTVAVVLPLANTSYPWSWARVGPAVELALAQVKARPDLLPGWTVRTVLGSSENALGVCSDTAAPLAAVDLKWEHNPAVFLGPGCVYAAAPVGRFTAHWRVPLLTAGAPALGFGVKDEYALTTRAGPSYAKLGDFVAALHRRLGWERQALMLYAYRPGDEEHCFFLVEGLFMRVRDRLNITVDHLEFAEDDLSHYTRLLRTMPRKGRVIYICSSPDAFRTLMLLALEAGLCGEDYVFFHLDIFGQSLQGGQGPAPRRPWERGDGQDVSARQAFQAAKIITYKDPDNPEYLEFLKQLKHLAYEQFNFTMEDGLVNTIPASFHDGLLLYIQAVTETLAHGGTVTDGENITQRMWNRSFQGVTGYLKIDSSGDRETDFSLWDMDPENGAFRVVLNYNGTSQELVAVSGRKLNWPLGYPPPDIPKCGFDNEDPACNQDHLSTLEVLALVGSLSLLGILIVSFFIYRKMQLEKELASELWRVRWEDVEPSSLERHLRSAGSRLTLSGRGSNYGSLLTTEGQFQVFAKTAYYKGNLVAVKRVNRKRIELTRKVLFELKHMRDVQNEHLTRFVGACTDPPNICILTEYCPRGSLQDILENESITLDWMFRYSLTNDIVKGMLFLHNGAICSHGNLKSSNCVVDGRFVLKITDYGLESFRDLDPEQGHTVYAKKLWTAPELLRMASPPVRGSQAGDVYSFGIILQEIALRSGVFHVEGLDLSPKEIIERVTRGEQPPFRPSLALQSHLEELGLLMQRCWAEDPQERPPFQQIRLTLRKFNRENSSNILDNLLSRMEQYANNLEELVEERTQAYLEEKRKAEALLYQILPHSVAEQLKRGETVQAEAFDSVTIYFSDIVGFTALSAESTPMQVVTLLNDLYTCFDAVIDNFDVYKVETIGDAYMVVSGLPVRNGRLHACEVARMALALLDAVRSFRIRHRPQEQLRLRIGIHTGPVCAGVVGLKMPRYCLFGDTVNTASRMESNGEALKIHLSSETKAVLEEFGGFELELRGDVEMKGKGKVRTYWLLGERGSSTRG

human NPR2 on CHO cells = target: T4, human NPR2 on CHO cells (human, UniProt P20594 23-1047); assay: cell-based or functional assay
T4 sequence (looked up): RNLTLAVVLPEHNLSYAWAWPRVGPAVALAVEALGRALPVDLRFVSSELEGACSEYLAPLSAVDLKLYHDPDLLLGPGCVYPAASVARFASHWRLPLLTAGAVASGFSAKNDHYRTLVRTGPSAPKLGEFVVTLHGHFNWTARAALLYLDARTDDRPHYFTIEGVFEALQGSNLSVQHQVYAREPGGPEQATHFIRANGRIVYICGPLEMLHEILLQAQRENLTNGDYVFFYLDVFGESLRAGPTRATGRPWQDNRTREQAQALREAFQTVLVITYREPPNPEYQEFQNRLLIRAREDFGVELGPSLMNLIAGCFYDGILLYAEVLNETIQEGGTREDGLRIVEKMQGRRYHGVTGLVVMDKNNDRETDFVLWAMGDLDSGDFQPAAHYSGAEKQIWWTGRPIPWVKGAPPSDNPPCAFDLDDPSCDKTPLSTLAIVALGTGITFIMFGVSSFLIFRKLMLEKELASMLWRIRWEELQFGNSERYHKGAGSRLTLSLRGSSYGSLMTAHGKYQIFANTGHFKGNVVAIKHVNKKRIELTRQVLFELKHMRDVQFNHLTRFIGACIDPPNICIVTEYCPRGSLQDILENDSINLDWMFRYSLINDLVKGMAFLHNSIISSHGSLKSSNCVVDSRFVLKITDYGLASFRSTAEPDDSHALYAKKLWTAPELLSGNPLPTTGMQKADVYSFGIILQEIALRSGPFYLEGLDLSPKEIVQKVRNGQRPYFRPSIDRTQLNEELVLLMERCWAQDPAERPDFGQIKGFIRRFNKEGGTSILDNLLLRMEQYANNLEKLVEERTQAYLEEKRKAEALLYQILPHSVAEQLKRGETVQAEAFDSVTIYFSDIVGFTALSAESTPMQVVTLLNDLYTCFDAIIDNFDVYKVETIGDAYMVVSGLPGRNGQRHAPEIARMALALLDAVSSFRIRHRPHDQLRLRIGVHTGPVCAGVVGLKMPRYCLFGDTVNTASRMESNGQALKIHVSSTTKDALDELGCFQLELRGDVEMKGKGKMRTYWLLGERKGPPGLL

rat NPR1 (rNPR1) [4] = target: T5, rat NPR1 (rNPR1) (rat, UniProt P18910 29-469, limits assumed); assay: SET, FabCys
T5 construct: Soluble antigen
T5 sequence: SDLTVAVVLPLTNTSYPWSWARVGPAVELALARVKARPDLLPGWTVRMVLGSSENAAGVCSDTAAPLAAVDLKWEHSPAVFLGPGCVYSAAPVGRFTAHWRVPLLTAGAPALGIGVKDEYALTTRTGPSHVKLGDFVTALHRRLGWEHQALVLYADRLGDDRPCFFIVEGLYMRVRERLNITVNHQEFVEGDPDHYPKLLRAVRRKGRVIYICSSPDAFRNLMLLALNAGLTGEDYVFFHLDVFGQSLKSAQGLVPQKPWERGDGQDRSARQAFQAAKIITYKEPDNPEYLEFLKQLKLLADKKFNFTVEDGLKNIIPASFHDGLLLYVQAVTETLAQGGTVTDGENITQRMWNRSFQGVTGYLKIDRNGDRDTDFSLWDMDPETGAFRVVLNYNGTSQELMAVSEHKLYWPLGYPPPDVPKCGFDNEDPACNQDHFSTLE

[5] = target: T1, human Natriuretic Peptide Receptor 1 …; assay: SET, FabCys; remark: listed apart in the source
hNPR1-ANP complex [6] = target: T2, hNPR1-ANP complex; assay: SET, FabCys; remark: listed apart in the source
rat NPR1 (rNPR1) [7] = target: T5, rat NPR1 (rNPR1); assay: SET, FabCys; remark: listed apart in the source
rNPR1-ANP complex = target: T6, rNPR1-ANP complex (rat, UniProt P01160 124-151 (human entry), limits assumed); assay: SET, FabCys
T6 construct: rNPR1 antigen in the presence of ANP; also called rNPR1 + 100 nM ANP
T6 sequence: T5 sequence
T6 sequence (peptide): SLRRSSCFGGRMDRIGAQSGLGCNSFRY

B2: WW06 (FabCys format) (Fab, V domains shown)
VH: QVQLVQSGAEVKKPGESLKISCKGSGYSFTSYWIAWVRQMPGKGLEWMGRIDPDNSYTRYSPSFQGQVTISADKSISTAYLQWSSLKASDTAMYYCARWLSPGYALGEQPAGMDHWGQGTLVTVSS
VL: DIVLTQPPSVSGAPGQRVTISCTGSSSNIGAGYAVHWYQQLPGTAPKLLIYSNNKRPSGVPDRFSGSKSGTSASLAITGLQAEDEADYYCQSYDLQKSSRVFGGGTKLTVL
cGMP conc [nM] at 2 µM FabCys, +0.075 nM ANP [3]: 251 nM
cGMP conc [nM] at 2 µM FabCys, without ANP [3]: 281 nM

B5: XX04 (FabCys format) (Fab, V domains shown)
VH: QVQLLESGGGLVQPGGSLRLSCAASGFTFSSYWMNWVRQAPGKGLEWVSAISSDGSYTYYADSVKGRFTISRDNSKNTLYLQMNSLRAEDTAVYYCARDRYSMIYSYGAGAFDYWGQGTLVTVSS
VL: DIQMTQSPSSLSASVGDRVTITCRASQGISSYLAWYQQKPGKAPKLLIYTASTLQSGVPSRFSGSGSGTDFTLTISSLQPEDFATYYCQQEWVKPRTFGQGTKVEIK
notes: Monovalent FabCys
rat/human KD ratio (rat NPR1 (rNPR1) [4]): < 5
Kd [5]: 32 nM
Kd (hNPR1-ANP complex [6]): 0.1 nM
Kd (rat NPR1 (rNPR1) [7]): 3.3 nM
Kd (rNPR1-ANP complex): 0.3 nM

B7: XX06 (FabCys format) (Fab, V domains shown)
VH: B5 VH
VL: B5 VL with E91T, V93R
notes: Monovalent FabCys
rat/human KD ratio (rat NPR1 (rNPR1) [4]): < 5
Kd [5]: 10 nM
Kd (hNPR1-ANP complex [6]): 0.1 nM
Kd (rat NPR1 (rNPR1) [7]): 2.3 nM
Kd (rNPR1-ANP complex): 0.3 nM

B8: XX07 (FabCys format) (Fab, V domains shown)
VH: B5 VH
VL: B5 VL with E91I, V93T, K94V
notes: Monovalent FabCys
rat/human KD ratio (rat NPR1 (rNPR1) [4]): < 5
Kd [5]: 21 nM
Kd (hNPR1-ANP complex [6]): 0.2 nM
Kd (rat NPR1 (rNPR1) [7]): 2.9 nM
Kd (rNPR1-ANP complex): 0.5 nM

B10: XX03 (FabCys format) (Fab, V domains shown)
VH: B5 VH with Q1E, A50V, S52E, D54K, S56N, T58I, Y59F
VL: B5 VL with Q89M, E91S, W92Y, V93E
notes: Monovalent FabCys
rat/human KD ratio (rat NPR1 (rNPR1) [4]): < 5
Kd [5]: 22 nM
Kd (hNPR1-ANP complex [6]): 0.2 nM
Kd (rat NPR1 (rNPR1) [7]): 1.1 nM
Kd (rNPR1-ANP complex): 0.1 nM

B11: XX01 (FabCys format) (Fab, V domains shown)
VH: EVQLLESGGGLVQPGGSLRLSCAASGFTFNTHYIHWVRQAPGKGLEWVSSISSSGQSTYYADSVKGRFTISRDNSKNTLYLQMNSLRAEDTAVYYCARERGYVYYHMFDPWGQGTLVTVSS
VL: DIVLTQSPATLSLSPGERATLSCRASQSITRNYLAWYQQKPGQAPRLLIYGASSRATGIPARFSGSGSGTDFTLTISSLEPEDFAVYYCQQHSMYPRTFGQGTKVEIK
notes: Monovalent FabCys
rat/human KD ratio (rat NPR1 (rNPR1) [4]): < 5
Kd [5]: 43 nM
Kd (hNPR1-ANP complex [6]): 0.3 nM
Kd (rat NPR1 (rNPR1) [7]): 1.4 nM
Kd (rNPR1-ANP complex): 0.5 nM

B12: XX08 (FabCys format) (Fab, V domains shown)
VH: B11 VH with S52G, S53G, S54Q, Q56G, S57M, Y59L
VL: B11 VL
notes: Monovalent FabCys
rat/human KD ratio (rat NPR1 (rNPR1) [4]): < 5
Kd [5]: 46 nM
Kd (hNPR1-ANP complex [6]): 0.3 nM
Kd (rat NPR1 (rNPR1) [7]): 1.8 nM
Kd (rNPR1-ANP complex): 0.2 nM

Further lines, results first:

Kd [1]: 0.74 nM
Kd (hNPR1-ANP complex [2]): 1.2 nM
B1: ZZ05 (FabCys format) (Fab, V domains shown)
VH: EVQLVQSGAEVKKPGESLKISCKGSGYSFTSYWISWVRQMPGKGLEWMGIIYPGTSYTRYSPSFQGQVTISADKSISTAYLQWSSLKASDTAMYYCARGSLPGLLGFDHWGQGTLVTVSS
VL: QSVLTQPPSVSGAPGQRVTISCTGSSSNIGAGYDVHWYQQLPGTAPKLLIYGNSNRPNGVPDRFSGSKSGTSASLAITGLQAEDEADYYCQSYGAFPRFVVFGGGTKLTVL
notes: Monovalent FabCys

cGMP generation EC50 (human NPR2 on CHO cells): > 500 nM
cGMP generation Y max (% of ANP) (human NPR2 on CHO cells): < 1 % of ANP
B3: XX16 (anti-NPR1 IgG) (antibody, V domains shown)
VH: B5 VH with Q1E, A50V, S52E, D54K, S56N, T58I, Y59F
VL: B5 VL with E91T, V93R

cGMP generation EC50 (human NPR2 on CHO cells): > 500 nM
cGMP generation Y max (% of ANP) (human NPR2 on CHO cells): < 1 % of ANP
B4: XX18 (IgG) (antibody, V domains shown)
VH: B5 VH with Q1E, A50V, S52E, D54K, S56N, T58I, Y59F
VL: B5 VL with V93A

cGMP generation EC50 (human NPR2 on CHO cells): > 500 nM
cGMP generation Y max (% of ANP) (human NPR2 on CHO cells): < 1 % of ANP
B6: XX15 (IgG) (antibody, V domains shown)
VH: B5 VH with Q1E, A50V, S52E, D54K, S56N, T58I, Y59F
VL: B5 VL

rat/human KD ratio (rat NPR1 (rNPR1) [4]): < 5
Kd [5]: 16 nM
Kd (hNPR1-ANP complex [6]): 0.2 nM
Kd (rat NPR1 (rNPR1) [7]): 3 nM
Kd (rNPR1-ANP complex): 0.5 nM
B9: XX12 (FabCys format) (Fab, V domains shown)
VH: B5 VH
VL: B5 VL with E91I, V93M, K94A
notes: Monovalent FabCys
